Laboratory results published in US20100055034A1 (DOMPE PHA MA S P A, published 2010).

B1: C4 F(ab')2 natural dimer (other)
light: QSALTQPASVSGSPGQSITISCTGTSSDVGSYNLVSWYQQHPGKAPKLMIYEGSKRPSGVSNRFSGSKSGNAASLTISGLQAEDEADYYCQSYDSSLSVVFGGGTKLTVLGQPKAAPSVTLFPPSSEELQANKATLVCLISDFYPGAVTVAWKADSSPVKAGVETTTPSKQSNNKYAASSYLSLTPEQWKSHRGYSCQVTHEGSTVEKTVAPTECS
heavy: QVQLVESGGGLVQPGRSLRLSCTTSGFTFGDYAMIWARQAPGKGLEWVSSISSSSSYIYYADSVKGRFTISRDNAKNSLYLQMNSLRAEDTAVYYCARERYDFWSGMDVWGKGTTVTVSSASTKGPSVFPLAPSSKSTSGGTAALGCLVKDYFPEPVTVSWNSGALTSGVHTFPAVLQSSGLYSLSSVVTVPSSSLGTQTYICNVNHKPSNTKVDKKDKTSC
modifications: C-terminal hinge cysteine disulfide-bonded to the second Fab'
notes: The preparation is heavily contaminated: 29% L2H2 dimer, 43% L2H pseudo-dimer and 25% free heavy chain; For heavy chain position 1 see the note of m2; also called F(ab')2-C4
B2: AFRA F(ab')2 natural dimer (other)
light: EIVLTQSPASLAVSPGQRATITCRASESVSFLGINLIHWYQQKPGQPPKLLIYQASNKDTGVPARFSGSGSGTDFTLTINPVEANDTANYYCLQSKNFPPYTFGQGTKLEIKRTVAAPSVFIFPPSDEQLKSGTASVVCLLNNFYPREAKVQWKVDNALQSGNSQESVTEQDSKDSTYSLSSTLTLSKADYEKHKVYACEVTHQGLSSPVTKSFNRGEC
heavy: NVQLVESGGGLVQPGRSLRLSCTTSGFTFGDYAMIWARQAPGKGLEWVSSISSSSSYIYYADSVKGRFTISRDNAKNSLYLQMNSLRAEDTAVYYCARERYDFWSGMDVWGKGTTVTVSSASTKGPSVFPLAPSSKSTSGGTAALGCLVKDYFPEPVTVSWNSGALTSGVHTFPAVLQSSGLYSLSSVVTVPSSSLGTQTYICNVNHKPSNTKVDKKDKTSC
modifications: C-terminal hinge cysteine disulfide-bonded to the second Fab'
notes: F(ab')2 made by natural oxidation of Fab'; By SDS-PAGE the preparation is 80% L2H2 dimer, 16% L2H and 4% free heavy chain; For Q1N see the note of m1; also called F(ab')2-AFRA; AFRA dimer
B3: AFRA Fab fragment (Anti Folate Receptor Alpha human Fab, kappa light chain) (Fab, V domains shown)
VH: NVQLVESGGGLVQPGRSLRLSCTTSGFTFGDYAMIWARQAPGKGLEWVSSISSSSSYIYYADSVKGRFTISRDNAKNSLYLQMNSLRAEDTAVYYCARERYDFWSGMDVWGKGTTVTVSS
VL: EIVLTQSPASLAVSPGQRATITCRASESVSFLGINLIHWYQQKPGQPPKLLIYQASNKDTGVPARFSGSGSGTDFTLTINPVEANDTANYYCLQSKNFPPYTFGQGTKLEIKR
notes: Made in E. coli periplasm; also called AFRA monomer; Fab AFRA
B4: C4 Fab fragment (human anti-folate receptor alpha Fab, lambda light chain) (Fab, V domains shown)
VH: QVQLVESGGGLVQPGRSLRLSCTTSGFTFGDYAMIWARQAPGKGLEWVSSISSSSSYIYYADSVKGRFTISRDNAKNSLYLQMNSLRAEDTAVYYCARERYDFWSGMDVWGKGTTVTVSS
VL: QSALTQPASVSGSPGQSITISCTGTSSDVGSYNLVSWYQQHPGKAPKLMIYEGSKRPSGVSNRFSGSKSGNAASLTISGLQAEDEADYYCQSYDSSLSVVFGGGTKLTVLG
notes: It says only that C4 and AFRA share the heavy chain except for Q1N in AFRA, so C4 has Q at position 1; also called Fab C4

Assays:
[1] = molecular target: T1, human folate receptor alpha as expressed on cells (human, UniProt P15328 25-234); test: cell ELISA on fixed IGROV1 cells, F(ab')2; KD = concentration at half of plateau signal
T1 construct: GPI-anchored on the cell surface; Natural expression on OVCAR3 and IGROV1 ovarian carcinoma cells, transfected into A431 cells (A431-FR); also called alpha FR; FR-alpha
T1 sequence (P15328 25-234): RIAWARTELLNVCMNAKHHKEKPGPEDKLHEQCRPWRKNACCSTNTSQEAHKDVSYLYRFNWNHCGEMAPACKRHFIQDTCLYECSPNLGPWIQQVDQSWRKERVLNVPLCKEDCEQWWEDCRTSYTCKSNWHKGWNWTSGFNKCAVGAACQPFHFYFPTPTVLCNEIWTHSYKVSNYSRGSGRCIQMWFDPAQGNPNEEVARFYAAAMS
Method: (§1) 4×10⁴ cells (human ovarian carcinoma cell lines OVCAR3 (ATCC) and IGROVI (a gift from Dr J. Bénard, Institut Gustave Roussy, Villejuif, France), and A431-FR⁽¹⁷⁾ cells which are human epidermoid carcinoma cells transfected with folate receptor alpha,) were seeded in each well of a 96 wells format plate, and grown until a confluent monolayer was obtained. Cells were fixed, for 5 minutes, at room temperature with 0.1% glutaraldehyde in PBS. Plates were washed twice with PBS, then once (5 minutes) with 0.1M glycine in PBS+0.02% NaN₃, successively five times with PBS and finely with PBS containing 1% BSA and 0.02% NaN₃.
(§2) An anti-human IgG (Fab specific, Sigma) peroxidase conjugated diluted 1:1000 in PBS+0.03% BSA was used to reveal antibodies fragment binding.
(§3) Since no signal could be detected on the A431 mock cells which are cells transfected with the empty vector, as compared to the cells transfected with FR-alpha, both AFRA and C4 antibodies were judged to be specific for the alpha folate receptor. […] Table I reports ELISA determination of KD values of F(ab′)₂ of C4 and AFRA antibodies fragments. The KD was determined as to be the concentration at which half of the ELISA plateau signal is obtained.

[2] = molecular target: T1, human folate receptor alpha as …; test: cell ELISA on fixed A431-FR cells, F(ab')2; KD = concentration at half of plateau signal
Method: as §1, §2, §3

[3] = molecular target: T1, human folate receptor alpha as …; test: cell ELISA on fixed OVCAR3 cells, F(ab')2; KD = concentration at half of plateau signal
Method: as §1, §2, §3

[4] = molecular target: T2, recombinant soluble human alpha folate receptor with His6 purification tag (human, UniProt P15328 25-232); test: SPR (BIAcore), recombinant FR amine-coupled to CM5 chip, Fab monomer 3.125-200 nM in flow
T2 construct: Expressed in CHO-K1 cells and purified from the supernatant; also called soluble alpha FR; recombinant FR
T2 sequence (P15328 other isoform, or with tags, fused parts or gaps limits assumed): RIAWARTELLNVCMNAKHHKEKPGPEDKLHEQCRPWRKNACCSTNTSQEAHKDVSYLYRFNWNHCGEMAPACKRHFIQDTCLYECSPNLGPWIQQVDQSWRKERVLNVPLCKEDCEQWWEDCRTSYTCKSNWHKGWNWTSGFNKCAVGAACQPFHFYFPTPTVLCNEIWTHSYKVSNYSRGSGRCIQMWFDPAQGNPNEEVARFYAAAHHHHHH
Method: (§4) FIG. 3 (BIAcore binding): Determination of antibody fragments binding parameters on alpha folate receptor. For this several concentrations of Fab monomer (from 3 to 200 nM) were flowed in the sensorchip cell previously coated with the recombinant receptor and binding was registered for 30 minutes. After this time period washing was monitored for another twenty minutes.
(§5) The target protein was coated on […] BIAcore sensorchip and several concentrations of both antibody fragments were used to determine the binding kinetics. In particular, recombinant FR was covalently bound to a CM5 sensor chip using the amine coupling kit (Pharmacia) with an antigen concentration of 0.6 μg/ml in 10 mM sodium acetate, pH 4.8 yielding a surface of 280 RU. Residual activated groups were blocked by injection of […] ethanolamine (1.0 M pH 8.5). […] Evaluation was performed for at least 30 minutes. Subsequently, detachment of residual antibody bound to the sensor chip was performed with 100 mM Glycine Buffer pH 2.7.

[5] = molecular target: T2, recombinant soluble human alpha folate …; test: SPR (BIAcore), KD of AFRA Fab against KD of C4 Fab
Method: as §4, §5

| Binder | Kd [1] [nM] | Kd [2] [nM] | Kd [3] [nM] | Kd [4] [nM] | fold lower KD than C4 [5] [fold] |
| --- | --- | --- | --- | --- | --- |
| B1 | 118 | 1.2 | 11 | – | – |
| B2 | 57 | 2.5 | 26 | – | – |
| B3 | – | – | – | 43.9 | 3 |
| B4 | – | – | – | 168 | – |
